Reference: patent publication KR20230076376A
Positions count from the first letter of the chain named.

B1: anti-Gc (ectodomain) 변이체 Fab 클론 Gc-3-1E12 (Fab, V domains shown)
VH: EVQLVESGGGLVQPGGSLRLSCAASGFTFSDYAMHWVRQAPGKGLEWVSGISSSGGSTFYADSVKGRFTISRDNSKNTLYLQMNSLRAEDTAVYYCAKWEWGYQERKWAFDLWGQGTLVTVSS
VL: DIQMTQSPSSLSASVGDRVTITCRASQSISNYLNWYQQKPGKAPKLLIYATSSLQSGVPSRFSGSGSGTDFTLTISSLQPEDFATYYCQQTYSFPWTFGQGTKVEIK
B2: anti-Gc (ectodomain) 변이체 Fab 클론 Gc-b3-1E2 (Fab, V domains shown)
VH: EVQLVESGGGLVQPGGSLRLSCAASGFTFSNYAMNWVRQAPGKGLEWVSAISGSGSSTYYADSVKGRFTISRDNSKNTLYLQMNSLRAEDTAVYYCAKQFYVGQWLSGWFDVWGQGTLVTVSS
VL: B1 VL with S53R, T91S
B3: anti-Gc (ectodomain) 변이체 Fab 클론 Gc-4-1C8 (Fab, V domains shown)
VH: EVQLVESGGGLVQPGGSLRLSCAASGFTFSDYAMNWVRQAPGKGLEWVSSISSSGSSTYYADSVKGRFTISRDNSKNTLYLQMNSLRAEDTAVYYCAKVKWRQSTSEYFDYWGQGTLVTVSS
VL: B1 VL with S28T, T51A, S53T, T91S

target: SFTSV Gc 변이체 (Severe Fever with Thrombocytopenia Syndrome Virus)

Question: How did the EC50 turn out when B1 was run?
Answer: The EC50 was 6 nM.

Question: For B2, which EC50 is on record?
Answer: Its EC50 is 89 nM.

Question: With B3 as the binder, how does the EC50 read?
Answer: Its EC50 is 157 nM.
